Measurements published in IntAct's records for PubMed 15644435.

Biological target: ush_drome ush (UniProt Q9VPQ6)
Sequence (Q9VPQ6 whole entry): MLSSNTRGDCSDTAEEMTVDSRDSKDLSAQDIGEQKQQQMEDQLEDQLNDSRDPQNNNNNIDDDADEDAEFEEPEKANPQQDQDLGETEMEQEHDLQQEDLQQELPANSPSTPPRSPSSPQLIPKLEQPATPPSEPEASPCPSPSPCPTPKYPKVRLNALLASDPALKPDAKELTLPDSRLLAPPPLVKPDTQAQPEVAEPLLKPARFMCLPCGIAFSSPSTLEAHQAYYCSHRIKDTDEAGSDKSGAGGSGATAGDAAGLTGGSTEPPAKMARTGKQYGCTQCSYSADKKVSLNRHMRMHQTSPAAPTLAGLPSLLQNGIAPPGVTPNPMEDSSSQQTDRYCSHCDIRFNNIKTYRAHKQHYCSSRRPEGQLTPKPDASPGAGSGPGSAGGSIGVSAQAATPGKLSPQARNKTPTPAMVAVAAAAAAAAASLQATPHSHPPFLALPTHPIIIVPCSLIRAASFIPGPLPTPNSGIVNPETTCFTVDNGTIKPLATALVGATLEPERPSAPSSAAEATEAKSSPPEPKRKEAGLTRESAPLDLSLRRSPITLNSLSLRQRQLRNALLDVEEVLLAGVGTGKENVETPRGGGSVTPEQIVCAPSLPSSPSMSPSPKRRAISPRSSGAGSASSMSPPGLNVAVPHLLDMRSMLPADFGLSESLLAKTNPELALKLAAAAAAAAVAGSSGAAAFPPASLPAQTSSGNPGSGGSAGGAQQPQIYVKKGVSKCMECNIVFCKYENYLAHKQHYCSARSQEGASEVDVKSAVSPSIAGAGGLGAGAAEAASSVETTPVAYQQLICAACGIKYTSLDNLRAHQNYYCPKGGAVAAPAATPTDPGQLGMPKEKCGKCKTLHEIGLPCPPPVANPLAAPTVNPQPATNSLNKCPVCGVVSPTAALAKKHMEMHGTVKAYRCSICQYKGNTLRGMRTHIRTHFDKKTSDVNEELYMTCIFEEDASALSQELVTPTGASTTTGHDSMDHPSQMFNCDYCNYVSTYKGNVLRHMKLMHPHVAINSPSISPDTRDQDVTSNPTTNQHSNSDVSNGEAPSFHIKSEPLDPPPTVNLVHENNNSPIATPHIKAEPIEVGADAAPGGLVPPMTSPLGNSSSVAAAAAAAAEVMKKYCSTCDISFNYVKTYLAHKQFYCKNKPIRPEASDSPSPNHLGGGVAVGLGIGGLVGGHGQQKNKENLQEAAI

Erythroid transcription factor (Mus musculus), P17679 G208S, sequence (P17679 whole entry G208S): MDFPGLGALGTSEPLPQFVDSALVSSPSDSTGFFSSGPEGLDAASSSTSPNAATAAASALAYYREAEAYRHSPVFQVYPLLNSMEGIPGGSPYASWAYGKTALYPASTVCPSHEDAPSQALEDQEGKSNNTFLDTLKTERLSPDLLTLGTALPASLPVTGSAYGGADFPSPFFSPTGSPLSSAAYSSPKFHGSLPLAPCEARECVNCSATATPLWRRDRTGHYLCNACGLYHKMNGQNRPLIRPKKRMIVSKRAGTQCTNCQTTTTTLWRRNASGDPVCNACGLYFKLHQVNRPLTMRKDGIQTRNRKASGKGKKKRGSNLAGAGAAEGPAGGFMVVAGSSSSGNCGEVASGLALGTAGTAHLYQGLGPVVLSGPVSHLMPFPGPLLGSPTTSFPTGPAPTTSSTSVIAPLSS
Erythroid transcription factor (Mus musculus), P17679 V205M, sequence (P17679 whole entry V205M): as the sequence (P17679 whole entry G208S) above, with V205M, S208G counted along it
Erythroid transcription factor (Mus musculus), P17679 D218G, sequence (P17679 whole entry D218G): as the sequence (P17679 whole entry G208S) above, with S208G, D218G counted along it
Erythroid transcription factor (Mus musculus), P17679 R216Q, sequence (P17679 whole entry R216Q): as the sequence (P17679 whole entry G208S) above, with S208G, R216Q counted along it

effect of a mutation on the interaction | Substance
with no effect | Erythroid transcription factor (Mus musculus), P17679 D218G
disrupting interaction strength | Erythroid transcription factor (Mus musculus), P17679 G208S
with no effect | Erythroid transcription factor (Mus musculus), P17679 R216Q
disrupting interaction strength | Erythroid transcription factor (Mus musculus), P17679 V205M
